Target: cynomolgus PD-1 (cynomolgus)
Test: kinetic analysis (bio-light interferometry)

Kd: 0.118 nM
B1: Pembrolizumab (antibody, human IgG4 S228P, kappa, V domains shown)
VH: QVQLVQSGVEVKKPGASVKVSCKASGYTFTNYYMYWVRQAPGQGLEWMGGINPSNGGTNFNEKFKNRVTLTTDSSTTTAYMELKSLQFDDTAVYYCARRDYRFDMGFDYWGQGTTVTVSS
VL: EIVLTQSPATLSLSPGERATLSCRASKGVSTSGYSYLHWYQQKPGQAPRLLIYLASYLESGVPARFSGSGSGTDFTLTISSLEPEDFAVYYCQHSRDLPLTFGGGTKVEIKR
notes: also called MK3475
